What was measured:
[1] = target: T1, cyno CD123 ECD displayed on pDisplay-transfected cells (cynomolgus monkey); test: MSD-CAT on cyno pDisplay cells
T1 construct: ECD anchored on the surface of stably transfected HEK293 cells; also called cynoCD123 SP1 cells; cynoCD123 cells
T1 chain: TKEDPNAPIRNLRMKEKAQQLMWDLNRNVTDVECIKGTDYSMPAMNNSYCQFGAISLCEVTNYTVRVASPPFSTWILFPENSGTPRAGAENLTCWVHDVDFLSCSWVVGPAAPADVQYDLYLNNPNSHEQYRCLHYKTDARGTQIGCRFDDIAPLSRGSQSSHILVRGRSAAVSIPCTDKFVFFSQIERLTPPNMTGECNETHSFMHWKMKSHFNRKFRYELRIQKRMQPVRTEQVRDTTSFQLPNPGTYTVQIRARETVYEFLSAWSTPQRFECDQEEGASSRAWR
Experimental: Cell lines used were human pDisplay CD and cyno pDisplay CD123SP1. […] These samples were prepared in DMEM Glutamax medium containing 0.05% Azide, 1% BSA, 3 mM EDTA. The receptor numbers of (3.15-4.18)×10⁶ hCD123/cell and (4.78-9.24) 10⁶ cyCD123/cell were converted to M receptor concentration in the mixture on the basis of the volume of reaction, the cell density (cells/L) and the Avogadro's number. […] After equilibration the plate was centrifuged for 5 min ˜1000 rpm and free anti-CD3 detected on the supernatant. […] The assay buffer was removed without washing and 50 μL/well of 0.7 μg/mL of biotinylated antigen in assay buffer were added to MSD plates and incubated overnight (˜16 hr at 4° C.). After overnight incubation, the plates were blocked by adding 150 μL/well of assay buffer without removing coating antigen, incubated for ˜1 hr at ambient temperature and washed 5 times with wash buffer (assay buffer without BSA). 50 μL/well of the supernantants from samples plate were transferred to antigen-coated plates, incubated for 60 min, and then washed three times with wash Buffer. […] After 1 hr the plates were washed and 150 μL of MSD Read Buffer (prepared by diluting 1:4 of stock into d. H₂O) were added per well. The plates were read immediately on the MSD Sector Imager 6000 Reader for luminescence levels.

[2] = target: T2, human CD123 SP1 ECD displayed on pDisplay-transfected cells (human, UniProt P26951 20-305); test: MSD-CAT, hCD123 cells, assay-2; apparent KD (bivalent)
T2 construct: ECD anchored on the surface of stably transfected HEK293 cells by the PDGFR transmembrane domain; also called hCD123 SP1 cells; hCD123 cells
T2 sequence: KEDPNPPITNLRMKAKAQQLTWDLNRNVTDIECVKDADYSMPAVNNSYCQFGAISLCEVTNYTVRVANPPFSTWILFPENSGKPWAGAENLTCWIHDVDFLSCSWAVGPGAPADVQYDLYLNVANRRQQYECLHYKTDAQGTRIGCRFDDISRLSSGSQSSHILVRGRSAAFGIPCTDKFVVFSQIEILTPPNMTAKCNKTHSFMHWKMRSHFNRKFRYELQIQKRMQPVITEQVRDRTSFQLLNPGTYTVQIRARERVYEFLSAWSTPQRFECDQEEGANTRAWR

[3] = target: T3, Recombinant human CD123 SP2 ECD protein (human, UniProt P26951 101-303); test: SPR ProteOn, captured mAb
T3 construct: also called rhCD123 SP2; CD123 ECD SP2
T3 sequence: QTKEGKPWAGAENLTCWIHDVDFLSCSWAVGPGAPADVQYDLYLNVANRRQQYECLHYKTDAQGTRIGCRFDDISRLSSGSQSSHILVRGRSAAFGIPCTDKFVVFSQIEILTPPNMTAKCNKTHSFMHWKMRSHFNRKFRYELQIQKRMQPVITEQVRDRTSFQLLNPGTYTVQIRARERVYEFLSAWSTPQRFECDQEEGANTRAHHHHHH

[4] = target: T4, human CD123 SP2 ECD displayed on pDisplay-transfected cells (human, UniProt P26951 101-305); test: MSD-CAT on pDisplay cells
T4 construct: ECD anchored on the surface of stably transfected HEK293 cells; also called hCD123 SP2 cells; pDisplay CD123SP2
T4 sequence: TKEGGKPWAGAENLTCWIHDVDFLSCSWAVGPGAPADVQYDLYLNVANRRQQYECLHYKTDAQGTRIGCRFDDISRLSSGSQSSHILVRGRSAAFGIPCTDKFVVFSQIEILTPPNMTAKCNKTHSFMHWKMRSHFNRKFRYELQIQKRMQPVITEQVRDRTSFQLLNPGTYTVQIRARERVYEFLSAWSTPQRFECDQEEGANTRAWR

[5] = target: T2, human CD123 SP1 ECD displayed on …; test: MSD-CAT on pDisplay cells

B1: I3RB18 (antibody, IgG1, V domains shown)
VH: EVQLVQSGAEVKKPGESLKISCKGSGYSFTSYWISWVRQMPGKGLEWMGIIDPSDSDTRYSPSFQGQVTISADKSISTAYLQWSSLKASDTAMYYCARGDGSTDLDYWGQGTLVTVSS
VL: EIVLTQSPGTLSLSPGERATLSCRASQSVSSSYLAWYQQKPGQAPRLLIYGASSRATGIPDRFSGSGSGTDFTLTISRLEPEDFAVYYCQQDYGFPWTFGQGTKVEIK
notes: IgG1; also called 13RB18; mAb I3RB18
**Q.** With B1 as the binder, how does the Kd [1] read?
**A.** > 12000 pM

**Q.** And the Kd [2]?
**A.** 343 pM

**Q.** What about the Kd [3] of the same binder?
**A.** 363 pM

**Q.** And the koff [3]?
**A.** 0.000978 s⁻¹

**Q.** What about the kon [3] of the same binder?
**A.** 2.69e+06 M⁻¹ s⁻¹

**Q.** What about the Kd [4] of the same binder?
**A.** 49 pM

**Q.** What about the Kd [5] of the same binder?
**A.** 47 pM
